The assay concerns the target T1, yeast mitochondrial RNA polymerase ΔN100 (y-mtRNAP ΔN100) (S. cerevisiae, UniProt P13433 101-1351).
T1 sequence (looked up): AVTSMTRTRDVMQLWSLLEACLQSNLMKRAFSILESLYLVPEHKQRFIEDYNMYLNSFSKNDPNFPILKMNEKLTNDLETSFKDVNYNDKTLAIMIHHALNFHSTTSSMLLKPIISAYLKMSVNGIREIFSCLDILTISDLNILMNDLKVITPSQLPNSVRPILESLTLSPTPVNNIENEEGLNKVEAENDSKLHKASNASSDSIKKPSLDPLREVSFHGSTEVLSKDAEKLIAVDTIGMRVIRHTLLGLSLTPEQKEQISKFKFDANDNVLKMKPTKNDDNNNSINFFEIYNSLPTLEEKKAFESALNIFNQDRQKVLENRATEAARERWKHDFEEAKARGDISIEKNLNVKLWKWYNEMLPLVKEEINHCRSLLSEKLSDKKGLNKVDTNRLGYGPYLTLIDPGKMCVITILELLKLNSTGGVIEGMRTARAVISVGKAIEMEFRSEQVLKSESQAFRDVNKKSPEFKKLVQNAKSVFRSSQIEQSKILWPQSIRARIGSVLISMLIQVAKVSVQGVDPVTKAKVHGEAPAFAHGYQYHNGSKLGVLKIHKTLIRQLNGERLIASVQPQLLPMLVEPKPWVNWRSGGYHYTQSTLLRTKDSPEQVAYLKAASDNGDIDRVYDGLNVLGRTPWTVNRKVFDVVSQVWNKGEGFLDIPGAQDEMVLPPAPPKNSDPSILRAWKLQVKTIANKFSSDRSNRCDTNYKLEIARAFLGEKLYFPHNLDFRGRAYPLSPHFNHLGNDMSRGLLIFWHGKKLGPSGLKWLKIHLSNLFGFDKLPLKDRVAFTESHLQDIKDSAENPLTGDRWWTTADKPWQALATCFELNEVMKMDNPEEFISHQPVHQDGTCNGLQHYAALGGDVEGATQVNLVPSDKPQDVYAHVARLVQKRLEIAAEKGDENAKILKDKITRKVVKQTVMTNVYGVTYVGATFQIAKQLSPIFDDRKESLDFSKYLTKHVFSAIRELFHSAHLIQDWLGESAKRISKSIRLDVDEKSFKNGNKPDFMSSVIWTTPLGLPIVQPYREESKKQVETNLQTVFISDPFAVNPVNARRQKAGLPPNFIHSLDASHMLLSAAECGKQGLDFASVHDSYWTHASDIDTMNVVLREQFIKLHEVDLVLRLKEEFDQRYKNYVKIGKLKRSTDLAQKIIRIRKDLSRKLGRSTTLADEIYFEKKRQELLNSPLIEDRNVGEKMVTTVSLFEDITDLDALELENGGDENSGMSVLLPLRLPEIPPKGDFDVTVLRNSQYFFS
Briefly: cryo-EM structure.

B1: MTF1 (yeast mitochondrial transcription factor), wild type (natural protein, S. cerevisiae)
chain: SVPIPGIKDISKLKFFYGFKYLWNPTVYNKIFDKLDLTKTYKHPEELKVLDLYPGVGIQSAIFYNKYCPRQYSLLEKRSSLYKFLNAKFEGSPLQILKRDPYDWSTYSNLIDEERIFVPEVQSSDHINDKFLTVANVTGEGSEGLIMQWLSCIGNKNWLYRFGKVKMLLWMPSTTARKLLARPGMHSRSKCSVVREAFTDTKLIAISDANELKGFDSQCIEEWDPILFSAAEIWPTKGKPIALVEMDPIDFDFDVDNWDYVTRHLMILKRTPLNTVMDSLGHGGQQYFNSRITDKDLLKKCPIDLTNDEFIYLTKLFMEWPFKPDILMDFVDMYQTEHSG
As for B1, the binding result is listed as “binds”.
